{"source": "patent US12319931B2", "about": "“Oncolytic virus expressing interferon and application therefor” (SHANGHAI YUANSONG BIOTECHNOLOGY CO. LTD., priority 2018, dated 2025)", "molecules": {"B1": {"name": "recombinant interferon protein: consensus interferon rIFN protein; synthetic interferon with roughly the average sequence of human interferon-α subtypes (protein)", "chain 1": "MALSFSLLMAVLVLSYKSICSLGMCDLPQTHSLGNRRALILLAQMRRISPFSCLKDRHDFGFPQEEFDGNQFQKAQAISVLHEMIQQTFNLFSTKDSSAAWDESLLEKFYTELYQQLNDLEACVIQEVGVEETPLMNVDSILAVKKYFQRITLYLTEKKYSPCAWEVVRAEIMRSFSLSTNLQERLRRKE", "chain 2": "B1 chain 1", "chain 3": "B1 chain 1", "modifications": "consensus interferon coding sequence IFN-1; consensus interferon coding sequence IFN-2; consensus interferon coding sequence IFN-3"}}, "system": "HCC1806 xenograft tumor", "test": "HCC1806 xenograft tumor model in nude mice", "format": "in vivo", "settings": "virus intratumoral 1.5×10^10 VP/time/mouse, rIFN intraperitoneal 20 μg/time/mouse, 5 times", "protocol": "When the experimental nude mice reached 5 weeks old, they were injected with 2×10^6 HCC1806 tumor cells for tumor formation. […] The tumor size was observed and measured every 3 days after administration of oncolytic virus.\nSpecifically, the triple negative breast cancer cell line HCC1806 xenograft tumor of nude mice with less immune cell infiltration were used for in vivo drug efficacy testing. […] The tumor size was measured every three days."}
{"molecule": "B1", "values": [{"measurement": "tumor-suppressive effect", "value": "no obvious tumor-suppressive effect"}]}
